Laboratory results: publication PMC9482650, “Quantitative fragmentomics allow affinity mapping of interactomes” (Nature Communications, 2022)

Key:
Assay in all cases: holdup assay
Design in all cases: key: below the threshold = too weak to quantify, mostly under pKd 3.1 to 4
IL16_4, Q14005 = molecular target: IL16_4, Q14005
DLG2_3, Q15700 = molecular target: DLG2_3, Q15700
GRASP, Q7Z6J2 = molecular target: GRASP, Q7Z6J2
Inadl_1, Q8NI35 = molecular target: Inadl_1, Q8NI35
RADIL, Q96JH8 = molecular target: T1, RADIL, Q96JH8
T1 sequence (Q96JH8 971-1071, limits assumed, looked up): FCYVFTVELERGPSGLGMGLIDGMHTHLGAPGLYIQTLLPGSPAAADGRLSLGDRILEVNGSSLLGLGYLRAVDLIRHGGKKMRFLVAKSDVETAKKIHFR

GRID2IP_2, A4D2P6 = molecular target: GRID2IP_2, A4D2P6
HTRA1, Q92743 = molecular target: HTRA1, Q92743
MAGI2_5, Q86UL8 = molecular target: MAGI2_5, Q86UL8
MAST2, Q6P0Q8 = molecular target: MAST2, Q6P0Q8
HTRA2, O43464 = molecular target: HTRA2, O43464
MAST1, Q9Y2H9 = molecular target: MAST1, Q9Y2H9
LNX1_3, Q8TBB1 = molecular target: LNX1_3, Q8TBB1
GRIP2_5, Q9C0E4 = molecular target: GRIP2_5, Q9C0E4
PDLIM1, O00151 = molecular target: PDLIM1, O00151
DLG4_1, P78352 = molecular target: DLG4_1, P78352
DLG4_2, P78352 = molecular target: DLG4_2, P78352
ARHGAP21, Q5T5U3 = molecular target: T2, ARHGAP21, Q5T5U3
T2 sequence (Q5T5U3 45-169, limits assumed, looked up): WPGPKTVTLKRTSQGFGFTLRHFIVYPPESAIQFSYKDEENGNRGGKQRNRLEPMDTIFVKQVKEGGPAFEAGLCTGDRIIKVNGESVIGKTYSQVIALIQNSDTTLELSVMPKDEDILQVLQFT

LNX1_2, Q8TBB1 = molecular target: LNX1_2, Q8TBB1
Inadl_6, Q8NI35 = molecular target: Inadl_6, Q8NI35
DLG1_2, Q12959 = molecular target: DLG1_2, Q12959
PDZD2_2, O15018 = molecular target: T3, PDZD2_2, O15018
T3 sequence (O15018 329-429, limits assumed, looked up): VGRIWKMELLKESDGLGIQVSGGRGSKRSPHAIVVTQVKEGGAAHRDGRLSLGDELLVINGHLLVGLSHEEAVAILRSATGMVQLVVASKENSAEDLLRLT

GORASP2, Q9H8Y8 = molecular target: GORASP2, Q9H8Y8
APBA2_2, Q99767 = molecular target: T4, APBA2_2, Q99767
T4 sequence (Q99767 654-744, limits assumed, looked up): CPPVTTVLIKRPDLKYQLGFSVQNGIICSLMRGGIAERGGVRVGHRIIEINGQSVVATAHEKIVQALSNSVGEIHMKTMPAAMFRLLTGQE

LAP2, Q96RT1 = molecular target: LAP2, Q96RT1
SHANK1, Q9Y566 = molecular target: T5, SHANK1, Q9Y566
T5 sequence (Q9Y566 658-767, limits assumed, looked up): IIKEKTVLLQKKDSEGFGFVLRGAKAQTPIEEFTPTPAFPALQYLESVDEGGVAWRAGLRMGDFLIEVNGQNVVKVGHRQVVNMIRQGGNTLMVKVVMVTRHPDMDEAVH

FRMPD4, Q14CM0 = molecular target: FRMPD4, Q14CM0
MAGI3_2, Q5TCQ9 = molecular target: MAGI3_2, Q5TCQ9
IL16_1, Q14005 = molecular target: IL16_1, Q14005
MAGI2_4, Q86UL8 = molecular target: MAGI2_4, Q86UL8
Inadl_10, Q8NI35 = molecular target: Inadl_10, Q8NI35
DLG4_3, P78352 = molecular target: DLG4_3, P78352
GIPC2, Q8TF65 = molecular target: GIPC2, Q8TF65
SNTB1, Q13884 = molecular target: T6, SNTB1, Q13884
T6 sequence (Q13884 107-205, limits assumed, looked up): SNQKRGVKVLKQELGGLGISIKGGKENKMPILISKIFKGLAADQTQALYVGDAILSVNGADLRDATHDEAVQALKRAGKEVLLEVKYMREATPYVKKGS

[1] = plain residues with an end cap or a label only (N-terminal biotin on a linker: ado-ado)
[2] = plain residues with an end cap or a label only (N-terminal biotin on a linker: ahx)

Sequence of DLG1_2, Q12959 (Q12959 314-412): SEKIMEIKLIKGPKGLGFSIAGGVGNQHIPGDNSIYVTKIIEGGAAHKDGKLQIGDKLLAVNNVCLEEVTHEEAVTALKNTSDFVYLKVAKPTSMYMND
Sequence of GIPC2, Q8TF65 (Q8TF65 112-203): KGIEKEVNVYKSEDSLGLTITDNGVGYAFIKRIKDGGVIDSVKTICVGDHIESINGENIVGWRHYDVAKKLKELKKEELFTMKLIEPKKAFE
Sequence of LAP2, Q96RT1 (Q96RT1 other isoform, or with tags, fused parts or gaps): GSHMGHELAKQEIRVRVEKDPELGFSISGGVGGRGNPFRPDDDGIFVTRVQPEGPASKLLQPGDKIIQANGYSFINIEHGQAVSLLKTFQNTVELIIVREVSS
Sequence of FRMPD4, Q14CM0 (Q14CM0 67-160): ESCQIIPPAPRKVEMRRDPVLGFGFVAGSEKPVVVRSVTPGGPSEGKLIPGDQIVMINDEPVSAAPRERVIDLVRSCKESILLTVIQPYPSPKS
Sequence of MAGI2_5, Q86UL8 (Q86UL8 915-1017): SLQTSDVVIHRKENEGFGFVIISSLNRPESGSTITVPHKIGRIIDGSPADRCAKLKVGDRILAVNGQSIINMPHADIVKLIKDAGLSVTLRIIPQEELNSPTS
Sequence of MAST2, Q6P0Q8 (Q6P0Q8 1099-1202): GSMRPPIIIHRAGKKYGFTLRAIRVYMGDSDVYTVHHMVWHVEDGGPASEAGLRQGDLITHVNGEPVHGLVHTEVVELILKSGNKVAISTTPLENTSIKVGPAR
Sequence of GRASP, Q7Z6J2 (Q7Z6J2 96-193): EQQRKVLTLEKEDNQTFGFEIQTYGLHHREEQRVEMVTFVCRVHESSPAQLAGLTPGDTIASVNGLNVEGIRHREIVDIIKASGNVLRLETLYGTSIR
Sequence of DLG4_2, P78352 (P78352 155-259): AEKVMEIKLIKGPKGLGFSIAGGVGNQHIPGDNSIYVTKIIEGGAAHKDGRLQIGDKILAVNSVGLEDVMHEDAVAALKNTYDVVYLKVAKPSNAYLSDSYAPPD
Sequence of DLG4_1, P78352 (P78352 62-152): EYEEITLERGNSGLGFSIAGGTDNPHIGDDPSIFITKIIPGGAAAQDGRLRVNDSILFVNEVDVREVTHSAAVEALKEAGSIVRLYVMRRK
Sequence of HTRA2, O43464 (O43464 355-458): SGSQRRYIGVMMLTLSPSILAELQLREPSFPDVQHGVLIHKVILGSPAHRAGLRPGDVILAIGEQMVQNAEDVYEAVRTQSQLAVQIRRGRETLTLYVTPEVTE
Sequence of Inadl_10, Q8NI35 (Q8NI35 1673-1763): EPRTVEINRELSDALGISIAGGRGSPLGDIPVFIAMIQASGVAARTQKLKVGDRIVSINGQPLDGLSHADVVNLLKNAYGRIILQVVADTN
Sequence of PDLIM1, O00151 (O00151 1-87): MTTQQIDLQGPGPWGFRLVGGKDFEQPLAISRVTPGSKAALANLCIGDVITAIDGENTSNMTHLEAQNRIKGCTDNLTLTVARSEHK
Sequence of IL16_1, Q14005 (Q14005 210-306): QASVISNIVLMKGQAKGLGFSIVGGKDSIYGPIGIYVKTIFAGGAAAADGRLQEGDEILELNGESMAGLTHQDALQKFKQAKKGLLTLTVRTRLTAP
Sequence of Inadl_1, Q8NI35 (Q8NI35 113-229): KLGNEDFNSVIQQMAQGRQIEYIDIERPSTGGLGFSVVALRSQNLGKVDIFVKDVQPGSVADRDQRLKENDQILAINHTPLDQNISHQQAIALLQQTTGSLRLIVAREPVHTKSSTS
Sequence of MAGI3_2, Q5TCQ9 (Q5TCQ9 398-503): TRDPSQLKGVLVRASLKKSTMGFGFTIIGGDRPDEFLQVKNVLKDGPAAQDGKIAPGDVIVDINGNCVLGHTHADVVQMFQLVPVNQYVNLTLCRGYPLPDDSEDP
Sequence of GRIP2_5, Q9C0E4 (Q9C0E4 544-642): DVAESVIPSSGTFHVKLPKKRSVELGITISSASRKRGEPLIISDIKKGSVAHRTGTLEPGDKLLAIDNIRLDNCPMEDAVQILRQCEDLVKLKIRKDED
Sequence of MAST1, Q9Y2H9 (Q9Y2H9 962-1065): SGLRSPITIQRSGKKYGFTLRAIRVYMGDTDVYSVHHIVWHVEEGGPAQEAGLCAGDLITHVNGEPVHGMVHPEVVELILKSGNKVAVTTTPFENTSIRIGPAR
Sequence of MAGI2_4, Q86UL8 (Q86UL8 772-865): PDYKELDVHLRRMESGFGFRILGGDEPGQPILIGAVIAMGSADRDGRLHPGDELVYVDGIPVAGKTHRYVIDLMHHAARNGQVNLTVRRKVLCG
Sequence of IL16_4, Q14005 (Q14005 1229-1329): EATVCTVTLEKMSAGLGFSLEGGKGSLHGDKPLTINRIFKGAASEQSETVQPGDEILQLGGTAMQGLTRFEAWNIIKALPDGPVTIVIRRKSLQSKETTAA
Sequence of DLG4_3, P78352 (P78352 306-403): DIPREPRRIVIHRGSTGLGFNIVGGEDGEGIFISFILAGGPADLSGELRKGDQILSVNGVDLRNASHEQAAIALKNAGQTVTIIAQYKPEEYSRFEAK
Sequence of HTRA1, Q92743 (Q92743 360-477): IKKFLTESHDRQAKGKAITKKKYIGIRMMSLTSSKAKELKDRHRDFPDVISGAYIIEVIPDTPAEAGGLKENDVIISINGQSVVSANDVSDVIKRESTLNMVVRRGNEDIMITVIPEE
Sequence of GRID2IP_2, A4D2P6 (A4D2P6 272-370): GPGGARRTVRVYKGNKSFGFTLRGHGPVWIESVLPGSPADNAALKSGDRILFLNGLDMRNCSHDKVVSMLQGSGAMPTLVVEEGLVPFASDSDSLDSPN
Sequence of LNX1_3, Q8TBB1 (Q8TBB1 500-596): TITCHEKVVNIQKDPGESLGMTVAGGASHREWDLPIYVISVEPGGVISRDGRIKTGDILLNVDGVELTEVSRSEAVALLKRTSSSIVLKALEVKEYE
Sequence of Inadl_6, Q8NI35 (Q8NI35 1058-1167): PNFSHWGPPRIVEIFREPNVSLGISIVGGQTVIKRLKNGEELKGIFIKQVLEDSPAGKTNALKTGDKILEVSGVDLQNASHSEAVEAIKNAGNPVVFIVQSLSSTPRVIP
Sequence of LNX1_2, Q8TBB1 (Q8TBB1 371-470): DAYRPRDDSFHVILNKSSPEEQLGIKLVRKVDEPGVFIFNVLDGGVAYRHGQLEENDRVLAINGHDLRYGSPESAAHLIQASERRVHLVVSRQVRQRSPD

GEDRSPPTAL [MKNK1, Q9BUB5]
pKd (IL16_4, Q14005; [1]): below the threshold | pKd (DLG2_3, Q15700; [1]): below the threshold | pKd (GRASP, Q7Z6J2; [1]): 4.62 | pKd (Inadl_1, Q8NI35; [1]): below the threshold | pKd (RADIL, Q96JH8; [1]): below the threshold | pKd (GRID2IP_2, A4D2P6; [1]): below the threshold | pKd (HTRA1, Q92743; [1]): below the threshold | pKd (MAGI2_5, Q86UL8; [1]): below the threshold | pKd (MAST2, Q6P0Q8; [1]): 4.85 | pKd (HTRA2, O43464; [1]): below the threshold | pKd (MAST1, Q9Y2H9; [1]): 4.1 | pKd (LNX1_3, Q8TBB1; [1]): below the threshold | pKd (GRIP2_5, Q9C0E4; [1]): below the threshold | pKd (PDLIM1, O00151; [1]): below the threshold | pKd (DLG4_1, P78352; [1]): below the threshold | pKd (DLG4_2, P78352; [1]): below the threshold | pKd (ARHGAP21, Q5T5U3; [1]): below the threshold | pKd (LNX1_2, Q8TBB1; [1]): below the threshold | pKd (Inadl_6, Q8NI35; [1]): below the threshold | pKd (DLG1_2, Q12959; [1]): below the threshold | pKd (PDZD2_2, O15018; [1]): below the threshold | pKd (GORASP2, Q9H8Y8; [1]): below the threshold | pKd (APBA2_2, Q99767; [1]): below the threshold | pKd (LAP2, Q96RT1; [1]): below the threshold | pKd (SHANK1, Q9Y566; [1]): below the threshold | pKd (FRMPD4, Q14CM0; [1]): 4.01 | pKd (MAGI3_2, Q5TCQ9; [1]): below the threshold | pKd (IL16_1, Q14005; [1]): below the threshold | pKd (MAGI2_4, Q86UL8; [1]): below the threshold | pKd (Inadl_10, Q8NI35; [1]): below the threshold | pKd (DLG4_3, P78352; [1]): 3.5 | pKd (GIPC2, Q8TF65; [1]): below the threshold | pKd (SNTB1, Q13884; [1]): 3.51

LPAVCYDIDI [PTTG2, Q9NZH5]
pKd (IL16_4, Q14005; [1]): below the threshold | pKd (DLG2_3, Q15700; [1]): 3.63 | pKd (GRASP, Q7Z6J2; [1]): below the threshold | pKd (Inadl_1, Q8NI35; [1]): below the threshold | pKd (RADIL, Q96JH8; [1]): below the threshold | pKd (GRID2IP_2, A4D2P6; [1]): below the threshold | pKd (HTRA1, Q92743; [1]): 3.9 | pKd (MAGI2_5, Q86UL8; [1]): below the threshold | pKd (MAST2, Q6P0Q8; [1]): 5 | pKd (HTRA2, O43464; [1]): below the threshold | pKd (MAST1, Q9Y2H9; [1]): 4.08 | pKd (LNX1_3, Q8TBB1; [1]): below the threshold | pKd (GRIP2_5, Q9C0E4; [1]): below the threshold | pKd (PDLIM1, O00151; [1]): below the threshold | pKd (DLG4_1, P78352; [1]): below the threshold | pKd (DLG4_2, P78352; [1]): below the threshold | pKd (ARHGAP21, Q5T5U3; [1]): 4.02 | pKd (LNX1_2, Q8TBB1; [1]): below the threshold | pKd (Inadl_6, Q8NI35; [1]): below the threshold | pKd (DLG1_2, Q12959; [1]): below the threshold | pKd (PDZD2_2, O15018; [1]): 4.17 | pKd (GORASP2, Q9H8Y8; [1]): 3.66 | pKd (APBA2_2, Q99767; [1]): below the threshold | pKd (LAP2, Q96RT1; [1]): below the threshold | pKd (SHANK1, Q9Y566; [1]): below the threshold | pKd (FRMPD4, Q14CM0; [1]): below the threshold | pKd (MAGI3_2, Q5TCQ9; [1]): below the threshold | pKd (IL16_1, Q14005; [1]): below the threshold | pKd (MAGI2_4, Q86UL8; [1]): 3.67 | pKd (Inadl_10, Q8NI35; [1]): below the threshold | pKd (DLG4_3, P78352; [1]): below the threshold | pKd (GIPC2, Q8TF65; [1]): 4.08 | pKd (SNTB1, Q13884; [1]): below the threshold

QNTDDVQTSF [ACE2, Q9BYF1]
pKd (IL16_4, Q14005; [2]): below the threshold | pKd (DLG2_3, Q15700; [2]): below the threshold | pKd (GRASP, Q7Z6J2; [2]): 4.29 | pKd (Inadl_1, Q8NI35; [2]): below the threshold | pKd (RADIL, Q96JH8; [2]): below the threshold | pKd (GRID2IP_2, A4D2P6; [2]): below the threshold | pKd (HTRA1, Q92743; [2]): below the threshold | pKd (MAGI2_5, Q86UL8; [2]): 4.21 | pKd (MAST2, Q6P0Q8; [2]): 5.13 | pKd (HTRA2, O43464; [2]): below the threshold | pKd (MAST1, Q9Y2H9; [2]): 4.6 | pKd (LNX1_3, Q8TBB1; [2]): below the threshold | pKd (GRIP2_5, Q9C0E4; [2]): below the threshold | pKd (PDLIM1, O00151; [2]): below the threshold | pKd (DLG4_1, P78352; [2]): below the threshold | pKd (DLG4_2, P78352; [2]): below the threshold | pKd (ARHGAP21, Q5T5U3; [2]): 3.64 | pKd (LNX1_2, Q8TBB1; [2]): below the threshold | pKd (Inadl_6, Q8NI35; [2]): below the threshold | pKd (DLG1_2, Q12959; [2]): 3.54 | pKd (PDZD2_2, O15018; [2]): below the threshold | pKd (GORASP2, Q9H8Y8; [2]): below the threshold | pKd (APBA2_2, Q99767; [2]): below the threshold | pKd (LAP2, Q96RT1; [2]): below the threshold | pKd (SHANK1, Q9Y566; [2]): 4.75 | pKd (FRMPD4, Q14CM0; [2]): 3.67 | pKd (MAGI3_2, Q5TCQ9; [2]): below the threshold | pKd (IL16_1, Q14005; [2]): below the threshold | pKd (MAGI2_4, Q86UL8; [2]): below the threshold | pKd (Inadl_10, Q8NI35; [2]): below the threshold | pKd (DLG4_3, P78352; [2]): below the threshold | pKd (GIPC2, Q8TF65; [2]): below the threshold | pKd (SNTB1, Q13884; [2]): below the threshold

KKMLQRRTLL [OR8G1, Q15617]
pKd (IL16_4, Q14005; [1]): below the threshold | pKd (DLG2_3, Q15700; [1]): below the threshold | pKd (GRASP, Q7Z6J2; [1]): 5.05 | pKd (Inadl_1, Q8NI35; [1]): below the threshold | pKd (RADIL, Q96JH8; [1]): 3.66 | pKd (GRID2IP_2, A4D2P6; [1]): 5.09 | pKd (HTRA1, Q92743; [1]): below the threshold | pKd (MAGI2_5, Q86UL8; [1]): 4.59 | pKd (MAST2, Q6P0Q8; [1]): 5.13 | pKd (HTRA2, O43464; [1]): below the threshold | pKd (MAST1, Q9Y2H9; [1]): 4.41 | pKd (LNX1_3, Q8TBB1; [1]): below the threshold | pKd (GRIP2_5, Q9C0E4; [1]): below the threshold | pKd (PDLIM1, O00151; [1]): below the threshold | pKd (DLG4_1, P78352; [1]): 3.87 | pKd (DLG4_2, P78352; [1]): 3.81 | pKd (ARHGAP21, Q5T5U3; [1]): below the threshold | pKd (LNX1_2, Q8TBB1; [1]): below the threshold | pKd (Inadl_6, Q8NI35; [1]): below the threshold | pKd (DLG1_2, Q12959; [1]): 4.09 | pKd (PDZD2_2, O15018; [1]): below the threshold | pKd (GORASP2, Q9H8Y8; [1]): 3.8 | pKd (APBA2_2, Q99767; [1]): below the threshold | pKd (LAP2, Q96RT1; [1]): below the threshold | pKd (SHANK1, Q9Y566; [1]): 4.71 | pKd (FRMPD4, Q14CM0; [1]): 3.53 | pKd (MAGI3_2, Q5TCQ9; [1]): 4.55 | pKd (IL16_1, Q14005; [1]): below the threshold | pKd (MAGI2_4, Q86UL8; [1]): below the threshold | pKd (Inadl_10, Q8NI35; [1]): below the threshold | pKd (DLG4_3, P78352; [1]): below the threshold | pKd (GIPC2, Q8TF65; [1]): below the threshold | pKd (SNTB1, Q13884; [1]): 3.64
